Common to all, as to details: protein: recombinant; tags: His (pET32a); blunt
Data set [1] deals with T1, MdMYB10-HIS (also printed MdMYB1-HIS) (Malus domestica? (apple), UniProt E2RZU2 1-243).
T1 sequence: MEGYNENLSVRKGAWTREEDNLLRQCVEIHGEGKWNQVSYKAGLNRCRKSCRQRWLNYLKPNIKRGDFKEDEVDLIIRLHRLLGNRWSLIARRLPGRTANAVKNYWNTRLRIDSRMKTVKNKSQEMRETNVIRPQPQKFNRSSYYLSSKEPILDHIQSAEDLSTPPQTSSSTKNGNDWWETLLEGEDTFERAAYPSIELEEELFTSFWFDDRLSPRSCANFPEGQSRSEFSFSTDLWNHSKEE
The data set is described as follows: EMSA; shift seen; authors judge it non-specific; not stated (EMSA as described by Xie et al. [40]).

Data set [2] concerns the target T1, MdMYB10-HIS (also printed MdMYB1-HIS). The data set is described as follows: EMSA; not stated (EMSA as described by Xie et al. [40]).
The target is the same in data set [3]. The data set is described as follows: competition; unlabeled MBS-1m against labeled MBS-1; no competition; not stated (EMSA as described by Xie et al. [40]).

Where a chain is given by its changes, count along the chain named.

B1: MdNIA2-1(MRE) (dsDNA)
DNA 1: AAGATTTCAGTTTAACAATTAGGTTGATTAGGAACCGGAACCAAA
DNA 2: TTTGGTTCCGGTTCCTAATCAACCTAATTGTTAAACTGAAATCTT
On to B1, for which, in data set [1], the binding result is listed as “binds”.

B2: MdNRT2.4-1(MBS-1) (dsDNA)
DNA 1: TTATAGAGGGTTTTGAGTTGACCGTGTGAAGGGTTGTGAAGAGGC
DNA 2: GCCTCTTCACAACCCTTCACACGGTCAACTCAAAACCCTCTATAA
Turning to B2, the binding result in data set [2] is on record as “binds”.

B3: MdNRT2.4-1(MBS-1m) (dsDNA)
DNA 1: B2 DNA 1 with C22T, C23T
DNA 2: B2 DNA 2 with G23A, G24A
As to B3, the binding result in data set [3] is on record as “no binding”.

For the origin of these results see PMC9016894, “MdMYB10 affects nitrogen uptake and reallocation by regulating the nitrate transporter MdNRT2.4-1 in red-fleshed apple”.
